Where two headings read alike, the source gives them in different places.
Key:
HLA-A*0201 (human) [1] = assay: inhibition of 125I-labelled probe peptide binding to purified HLA-A*0201, gel filtration
HLA-A*0201 (human) [2] = assay: inhibition of 125I-labelled standard peptide binding to purified HLA-A*0201, gel filtration
HLA-A*0206 (human) = assay: competition with 125I-labelled standard peptide for purified HLA, gel filtration; conditions: remark: other sources report otherwise
[3] = remark: other sources report otherwise

Row | IC50 (HLA-A*0201 (human) [1]; [3]) [nM] | Binder | further results
1 | < 200 | GMPEGDLVYV (modifications not checked) [PSM.168 …] | 
2 | < 200 | ALGTTCYA (modifications not checked) [PSA.143 ALGTTCYA] | 
3 | < 200 | FLTPKKLQCV (modifications not checked) [PSA.161 …] | 
4 |  | CMTTNSHQGT (modifications not checked) [… (PAP, position 372)] | binding affinity ratio (IC50 of standard peptide / IC50 of test peptide) (HLA-A*0201 (human) [2]): 0.0002
5 |  | LLLARAASLSL (modifications not checked) [PAP.6 …] | IC50 (HLA-A*0201 (human) [1]): < 200 nM
6 |  | LMYSLVHNL (modifications not checked) [PSM.469 …] | IC50 (HLA-A*0201 (human) [1]): < 200 nM
7 | < 200 | LLQERGVAYI (modifications not checked) [PSM.441 …] | 
8 |  | CIRNKSVILL (modifications not checked) [… (PSA, position 62)] | binding affinity ratio (IC50 of standard peptide / IC50 of test peptide) (HLA-A*0201 (human) [2]): 0.0001
9 |  | MLLRLSEPAEL (modifications not checked) | IC50 (HLA-A*0201 (human) [1]): < 200 nM
10 | < 200 | SLHLLSNDMCA (modifications not checked) [HuK2.175 …] | 
11 |  | CVDLHVISNDV (modifications not checked) [… (PSA, position 169)] | binding affinity ratio (IC50 of standard peptide / IC50 of test peptide) (HLA-A*0201 (human) [2]): 0.0001
12 | < 200 | MLLRLSEPA (modifications not checked) | 
13 |  | TLMSAMTNL (modifications not checked) [PAP.112 …] | IC50 (HLA-A*0201 (human) [1]): < 200 nM
14 | < 200 | LVLAGGFFL (modifications not checked) [PSM.26 …] | 
15 | < 200 | LMLLRLSEPA (modifications not checked) [PSA.117 …] | 
16 | < 200 | FLRPRSLQCV (modifications not checked) [HuK2.165 …] | 

Row | IC50 (HLA-A*0201 (human) [1]; [3]) [nM] | Binder | further results
17 | < 200 | GLPSIPVHPI (modifications not checked) [PSM.288 …] | 
18 | < 200 | FLNESYKHEQV (modifications not checked) [PAP.92 …] | 
19 | < 200 | LLFFWLDRSV (modifications not checked) [PAP.21 …] | 
20 | < 200 | VLAGGFFLL (modifications not checked) [PSM.27 …] | 
21 | < 200 | IMYSAHDTTV (modifications not checked) [PAP.284 …] | 
22 |  | MMNDQLMFL (modifications not checked) [PSM.663 …] | IC50 (HLA-A*0201 (human) [1]): < 200 nM
23 | < 200 | ILLWQPIPV (modifications not checked) [PAP.135 …] | 
24 | < 200 | ALFDIESKV (modifications not checked) [PSM.711 …] | 
25 | < 200 | ALDVYNGLL (modifications not checked) [PAP.299 …] | 
26 | < 200 | KLQCVDLHV (modifications not checked) [PSA.166 …] | 
27 |  | PALGTTCYA (modifications not checked) [Kallikrein 146 …] | binding affinity ratio (IC50 of standard peptide / IC50 of test peptide) (HLA-A*0206 (human)): 0.0002
28 | < 200 | QLMFLERAFI (modifications not checked) [PSM.667 …] | 
29 | < 200 | VLAKELKFV (modifications not checked) [PAP.30 …] | 
30 |  | RMMNDQLMFL (modifications not checked) [peptide 1126.06 (PSM.662)] | IC50 (HLA-A*0206 (human)): 40 nM
31 | < 200 | RMMNDQLMFL (modifications not checked) [PSM.662 …] | 

From US20070020327A1
